Residue numbers refer to the chain shown, from its start.
How the values were obtained:
[1] = biological target: T1, GII.4 Houston 2002 (ABY27560.1) VLPs (UniProt P54635 1-539); assay: ELISA binding
[2] = biological target: Glutathione S-transferase (GST)-tagged GII.4 Sydney 2012 P domain dimers; assay: ELISA
[3] = biological target: T1, GII.4 Houston 2002 (ABY27560.1) VLPs; assay: VLP blockade
[4] = biological target: T2, GII.4 Sydney 2012 shell (S) domain (UniProt P54635 1-221); assay: ELISA
T2 chain: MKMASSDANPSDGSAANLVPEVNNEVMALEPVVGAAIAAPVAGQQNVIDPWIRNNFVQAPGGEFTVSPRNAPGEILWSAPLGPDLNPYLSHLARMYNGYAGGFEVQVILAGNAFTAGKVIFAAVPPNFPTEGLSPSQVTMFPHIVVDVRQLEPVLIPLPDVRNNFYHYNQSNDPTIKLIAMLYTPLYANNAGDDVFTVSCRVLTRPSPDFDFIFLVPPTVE

B1: NORO-115 (antibody, V domains shown)
VH: QVQLVESGGGLVKPGGSLRLSCTASGITISGYYMSWIRQAPGKGLEWIVYINTSGRTIYYADSVKGRFSVSRDNAKESLYLQMDSLTVDDTGIYYCARDRLPASGSHWFHPWGQGTLVTVSS
VL: DIVMTQSPDSLAVSLGGRATINCKSSQSVLYTSDNKNYLAWYQQQPGQPPKLLISWASTRESGVPDRFSGSGSGTDFTLTISNLQAEDVAVYYCQQYYNSPLAFGGGTKVEIK
EC50 [1]: 1.1 µg/mL | EC50 [2]: 0.1 µg/mL | EC50 [3]: 2.3 µg/mL

B2: NORO-312A (antibody, V domains shown)
VH: QVQLVESGGALVKPGESLRLSCAASGFTFSDSYMSWIRQAPGKGLEWVAYISGIMSSTNYADSVKGRFTISRDNGKNSVYLQMNNLRAEDTAVYYCARDAQYCSGGRCYLVFDYWGQGTLVTVSS
VL: QSVLTQPPSVSGAPGQRVTISCTGSSSNIGAGYEVHWYQQLPGAAPKLIIYGNNNRPSGVPDRFSGSKSGTSASLAITGLQADDEADYYCQSYDNRLRVFGGGTKLTVL
EC50 [4]: 9.9 µg/mL

B3: NORO-250B (antibody, V domains shown)
VH: QVQLVESGGGLVKPGGSLTLSCAASGFTFSDYYMNWIRQAPGKRLEWVSYISGIMSSTNYADSVKGRFTISRDTAKKSVYLQMNSLRAEDTAVYYCARATSQGATSYYFDSWGQGTLVTVSS
VL: QSVLTQPPSVSGAPGQRVTISCTGSSSNIGADYDVHWYQQLPGAAPRLLIYADINRPSGVPDRFSGSKSGTSASLAITGLQAEDEADYYCQSYDRSVSGSAVFGGGTKVTVL
EC50 [1]: 0.1 µg/mL | EC50 [2]: 0.1 µg/mL | EC50 [3]: 17.9 µg/mL

B4: NORO-263 (antibody, V domains shown)
VH: QVQLVESGGGLVKPGGSLRLSCAASGFTLSDYYMSWIRQAPGKGLEWVAYISSSHTSTYYRDSVKGRFTISRDSAKKSLYLQMNSLRVEDTAIYYCARDWVGGRSAYSDHWGQGTLVTVSS
VL: SYELTQPPSVSVSPGQTARITCSGDALPRRPAFWYQQKSGQAPVLVMYDDSKRPSGIPERFSGSSSGTVATLTISGAQVEDEADYHCYSTDSSGKERVFGGGTKLTVL
EC50 [1]: 0.5 µg/mL | EC50 [2]: 0.9 µg/mL | EC50 [3]: 2.1 µg/mL

B5: NORO-273A (antibody, V domains shown)
VH: QVQLVQSGAEVKKPGASVKISCKASGYDFTSFPMHWVRLGPGQRLEWMGWISAANGNTKYSQKFQDRFTITRDTSASIVHMELSSLRSEDTAVYYCARGGYSSGLYRYSNYYYGMTVWGQGTLVTVSS
VL: DIVMTQTPLSLSVTPGQPASISCKSSESLLHNDRKTYLFWYLQKPGQPPQLLIFQVSNRFSGVPDRFSGSGSGTDFTLRISRVEAEDVGIYYCLQTTQLPLTFGGGTKVEIK
EC50 [3]: 5.2 µg/mL

B6: NORO-256A (antibody, V domains shown)
VH: QVQLVESGGGVVQAGRSLRLSCAASGFTFRSYGMHWVRQAPGKGLEWVAIISYDGGSKYYADSVKGRFTISRDNSKNTLYLQMNSLRVEDTALYYCAKDFLRVYSYGWHSFDIWGLGTLVTVSS
VL: QSVLTQPPSVSAAPGQRVTISCSGSSSNIGTYYVSWYQHLPGTAPKLLIYDNDKRPSGIPDRFSASKSGTSATLDIAGLQTGDEADYYCGTWDLSLTAGWVFGGGTKLTVL
EC50 [1]: 0.4 µg/mL | EC50 [4]: 0.4 µg/mL | EC50 [3]: > 100 µg/mL

B7: NORO-251A (antibody, V domains shown)
VH: QVQLVESGGGVVQPGRSLRLSCAASGFTFRSYGIHWVRQAPGKGLEWVALISYDGSSKYYADSVKGRFTISRDNSKNTLYLQMNSLRSEDTAVYYCAKVRLTSYSIGWFSFDYWGQGTLVTVSS
VL: QSVLTQPPSVSAAPGQKVTISCSGSSSNIANYYVSWYQQLPGRAPKLLIYDNNKRPSGIPDRISGSKSGTSATLGITGLQTGDEADYYCGTWDTSLSAWVFGGGTKLTVL
EC50 [1]: 0.3 µg/mL | EC50 [4]: 4.1 µg/mL | EC50 [3]: > 100 µg/mL

B8: NORO-315B (antibody, V domains shown)
VH: QVQLVESGGGLVKPGGSLRLSCVASGFTFSDYYMTWFRQTPGRGLEWLSYISAIGGYTEYADSVKSRFIISRDNGKKSLYLQMNSLRAEDSGVYYCAREDCHGTSCYSGDWGQGTLVTVSS
VL: QSVLTQPPSVSGAPGQRVTISCTGSSSNIGAGYDVHWYQQLPGTAPKLLIYHNTNRPSGVPDRFSGSKSGTSAYLTITGLQAEDEADYYCQSYDRSLSKSRVFSGGTKLTVL
EC50 [1]: 0.5 µg/mL | EC50 [2]: 0.3 µg/mL | EC50 [3]: 2.2 µg/mL

B9: NORO-278 (antibody, V domains shown)
VH: QVQLVESGGGVVQPGRSLRLSCAASGFTFSSYGMHWVRQAPGKGLEWVAVISYDGSNKYYADSVKGRFTISRDNSKNTLYLQMNSLRAEDTAVYYCAKVTIIAAADLLDYWGQGTLVTVSS
VL: B8 VL with H52G, T54S, Y74S, T76A, R95S, K99G, S100P, R101V, S104G
EC50 [1]: 0.5 µg/mL | EC50 [2]: 68.5 µg/mL | EC50 [3]: > 100 µg/mL

B10: NORO-123 (antibody, V domains shown)
VH: QVQLVESGGGVVQPGRSLRLSCSTSGFTFSQYPMHWVRQAPGKGLEWVALISYDGMNKYYADSVRGRFTISRDNSENTQYLQMNSLRGDDTAVYYCARVTGDCTGNRCSYWAYYYYGLDVWGQGTLVTVSS
VL: QSALTQPPSASGSPGQSVTISCTGTSSDVGGYKYVSWYQQHPGKAPKLMIYEVTRRPSGVPDRFSGSKSGNTAFLTVSGLQAEDEADYYCGSYAGSTTSGYVFGTGTKVIVL
EC50 [1]: 0.6 µg/mL | EC50 [2]: 6.1 µg/mL | EC50 [3]: 2.5 µg/mL

B11: NORO-329A (antibody, V domains shown)
VH: QVQLVESGGGLVKPGGSLRLSCAASGFTFSDYYMSWIRQAPGKGLEWISYISSSFGSTDYAGSMKGRFTISRDNAKNSLYLQMNSLRAEDTAVYYCARYNYYGSGSFVFDYWGQGTLVTVSS
VL: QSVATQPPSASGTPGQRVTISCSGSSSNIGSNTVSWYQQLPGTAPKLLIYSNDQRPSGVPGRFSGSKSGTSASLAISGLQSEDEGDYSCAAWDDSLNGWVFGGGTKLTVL
EC50 [4]: 35.8 µg/mL

B12: NORO-296A (antibody, V domains shown)
VH: QVQLVESGGGLVKPGGSLRLSCAASGFTFSEYYMSWVRQAPGKALEWVSYITSSFSSTSYADSVKGRFVISRDNAKNSLYLQMNSLRVEDTAVYYCARYGAEYGSRSFYFLDWGQGTLVTVSS
VL: QSVLTQPPSVSGAPEQRVTISCTGSSSNIGAGYDVHWYQVLPGIAPKLLIYDNNKRPSGVPDRFSGSKSGTSASLAITGLQAEDEADYYCQSYDSRLSSNVVFGGGTKLTVL
EC50 [1]: 0.1 µg/mL | EC50 [4]: 12.5 µg/mL | EC50 [3]: 3.2 µg/mL

B13: NORO-317 (antibody, V domains shown)
VH: QVQLVESGGGLVKPGGSLRLSCVASGFTFSDYYISWVRQAPGKGLEWVSYISAINSYTNYADSVRGRFTVSRDNAKKSVFLQMNSLRVDDTAVYYCARDVGGSVRYSSNSNKKSYNYFDPWGQGTLVTVSS
VL: SYELTQPPSVSVSPGQTATITCSGDVLSKEFAYWYQQKPGQAPVLVIYKDNERPSGIPERFSGSTSGTTVTLTISGVLAEDEAHYYCQSVDTRGTYKVFGGGTKLTVL
EC50 [2]: 0.2 µg/mL

B14: NORO-313.1 (antibody, V domains shown)
VH: QVQLVESGGGLVKPGGSLRLSCAASGFTFSDFYMSWIRQAPGKGLEWVGYISSIAGATNYADSVKGRFTISRDSSKRSLYLQMNSLRVEDTAVYYCARMGRLELERRPHYYYPLDVWGQGTLVTVSS
VL: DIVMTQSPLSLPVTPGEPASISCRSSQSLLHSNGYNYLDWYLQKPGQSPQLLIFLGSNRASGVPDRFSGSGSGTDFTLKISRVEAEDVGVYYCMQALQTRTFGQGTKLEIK
EC50 [1]: 0.1 µg/mL | EC50 [2]: 0.8 µg/mL | EC50 [3]: 2.1 µg/mL

B15: NORO-303 (antibody, V domains shown)
VH: QVQLVESGGGVVQPGRSLRLSCAASGFIFSSYAMHWVRQAPGKGLEWVAVMSYDGNNKYYADSVKGRFTISRDNSKNTLFLQMNSLRPEDTAVYYCARDCRVGWVFTYGMDVWGQGTLVTVSS
VL: QSALTQPPSASGSPGQSVTISCTGTSSDVGGYNYVSWYQQHPGKAPKLMMYEISKRPSGVPIRFSGSKSGNTASLTVSGLQAEDEADYYCSSYAGTYNCVVFGGGTKLTVL
EC50 [2]: 6.8 µg/mL | EC50 [3]: > 100 µg/mL

Reference: US20210324050A1 (published 2021)
